According to patent US7704737B2, “Oligodendrocyte production from multipotent neural stem cells” (Stem Cell Therapeutics Inc., priority 2002, dated 2010):
“Also recorded” adds a separate entry of the source.

T1: GM-CSF (Mus musculus, UniProt P01587)
T1 construct: purchased Peprotech
T1 sequence (P01587 18-141): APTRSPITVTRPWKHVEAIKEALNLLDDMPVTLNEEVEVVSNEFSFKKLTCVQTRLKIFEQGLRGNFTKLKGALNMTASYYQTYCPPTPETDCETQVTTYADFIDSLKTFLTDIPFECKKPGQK


Assays:
neural stem cells [1] = test: rapid differentiation protocol of neural stem cells, immunostaining for O4, GalC and MBP; type: cell-based, mouse; conditions: for % positive cells, GalC / % positive cells, MBP / % positive cells, O4: 20 ng/ml factor in MHM
Experimental: To determine the effect of GM-CSF on neural stem cell differentiation, a culture of neural stein cells was prepared from mouse embryos and subjected to a rapid differentiation protocol. Embryonic Day 14 (E14) mouse ganglionic eminence was dissected and grown in media hormone mix (MHM) plus 20 ng/ml epidermal growth factor (EGF) for one week to generate primary neurospheres. The composition of MHM was as follows: • DMEM/F12 (1:1) • glucose (0.6%) • glutamine (2 mM) • sodium bicarbonate ([…]) • HEPES (5 mM) • insulin (25 μg/ml • transferrin (100 μg/ml) • progesterone (20 nM) • putrescine (60 μM) • selenium chloride (30 nM)
Primary neurospheres were then dissociated and plated on poly-L-ornithine coated coverslips in 24-well plates at a density of 200,000 cells/ml in 1 ml of MHM per well. Cells were allowed to differentiate in the absence or presence of 20 ng/ml GM-CSF (murine recombinant GM-CSF, Peprotech) in MHM or 20 ng/ml of triiodothyronine (T3, Sigma) in MHM, or in a combination of both GM-CSF and T3. T3 is a known oligodendrocyte differentiation factor, which was used to compare GM-CSF in these experiments.
After 1, 3 or 5 days, the cells were fixed with 4% paraformaldehyde. […] After staining, the numbers of O4-positive, GalC-positive and MBP-positive cells were counted. The total number of cells were determined using Hoechst staining and live nuclei morphology under 40× magnification. This experiment was performed four times, and 10 non-overlapping fields per coverslip were counted each time. Statistical analyses of the results were performed using Anova with a Tukey-Honest post-hocs analysis.

[2] = test system: E14 mouse ganglionic eminence cells; test: primary neurosphere numbers; type: cell-based; conditions: MHM plus EGF plus factor, 20 ng/ml, 1 week, FIG. 4
Experimental: The effect of GM-CSF on primary neurosphere numbers was also examined by growing cells from E14 mouse ganglionic eminence in MHM plus EGF, MHM plus EGF plus GM-CSF, or MHM plus EGF plus T3, all at concentrations of 20 ng/ml. Thus, E14 mouse ganglionic eminence cells were dissociated and plated in 96well plates at a density of 10,000 cells/ml in 200 μl of media per well, and allowed to form primary neurospheres for a week. The number of primary spheres in each well as then counted and the aforementioned statistical analysis as performed.

[3] = test system: EGF-responsive neural stem cells; test: secondary neurosphere numbers (self-expansion); type: cell-based, mouse; conditions: FIG. 5; for number of secondary neurospheres: factor in secondary neurosphere media, primary spheres grown in EGF; for formation of secondary spheres: factor included in the media for primary neurospheres
Experimental: Furthermore, the effect of GM-CSF on self-expansion, proliferation of secondary neurospheres derived from primary neurospheres, was also assessed. Three media were used in the preparation of primary spheres: MHM plus EGF, MHM plus EGF plus GM-CSF and MHM plus EGF plus T3. The primary, spheres were dissociated, plated in 96-well plates at a concentration of 1000 cells/well in 200μL media per well, and allowed to form secondary neurospheres for a week. The media for secondary cultures consisted of MHM plus EGF alone, MHM plus GM-CSF or T3 alone, or MHM plus EGF supplemented with GM-CSF or T3. The number of secondary spheres in each well was then counted, calculated as percentage of control (EGF to EGF).

neural stem cells [4] = test: fate determination analysis (MBP+ and β-tubulin+ cells); type: cell-based, mouse; conditions: primary spheres generated in EGF plus factor, differentiated 5 days, FIG. 6
Experimental: To determine if the presence of GM-CSF during primary neurosphere formation impacts fate determination of neural stem cells, primary neurospheres were generated in either EGF alone, EGF plus GM-CSF, or EGF plus T3 as described in Example 3. The primary spheres were then dissociated and plated on poly-L-ornithine coated coverslips in 24-well plates at a density of 200,000 cells/well in 1 ml of MHM per well, and allowed to differentiate for 5 days. At the end the differentiation period, the cells were fixed with 4% paraformaldehyde and immunostained for the mature oligodendrocyte marker MBP, the neuronal marker β-tubulin, and Hoechst. The total number of live cells, evidenced by Hoechst stain, were counted as well as the immunostained cells.

[5] = test system: E14 ganglionic eminence cells; test: total cell number of primary neural stem cell culture; type: cell-based, mouse; conditions: MHM plus EGF plus factor, 1 week, versus MHM plus EGF, FIG. 3
Experimental: To assess the effect of GM-CSF on proliferation of neural stem cells, the number of cells generated in neurosphere cultures, prepared according to Example 1, was counted when grown for 1 week in various culture media. Thus, E14 ganglionic eminence cells were grown at a density of 200,000 cells/ml in 40 ml of media for 1 week. The media were MHM plus EGF, MHM plus EGF and GM-CSF, or MHM plus EGF and T3. Spheres were then collected, dissociated and cells were counted with a hemacytometer. The cell numbers were calculated as percentages of the control (MHM plus EGF).

[6] = test system: differentiating neural stem cells; test: Survival Assay: factor added or removed at different times, MBP staining; type: cell-based, mouse; design: MBP + cells after 5DIV: unit not given here; conditions: for dependence of oligodendrocyte numbers on length of time the factor is present: summary of Table 2, MBP after 5 DIV
Experimental: In the second line of experiments, GM-CSF ,as given to differentiating neural stem cells at different times. Thus, neural stem cell culture was placed in differentiation media as described in Example 1, and GM-CSF was added after 24 or 48 hours, or added in the beginning but removed after 24 or 48 hours. Similarly, T3 was added or removed in the same manner in parallel experiments. The cells were fixed after 5 days in vitro and immunostained with the mature oligodendrocyte marker MBP.

[7] = test system: maturing oligodendrocytes; test: dying maturing oligodendrocytes (GalC+, TUNEL+ cells); type: cell-based, mouse; conditions: 1, 3 or 5 days in differentiation media, FIG. 2
Experimental: The survival effects of GM-CSF on oligodendrocytes were examined with two lines of experiments. In the first line of experiments, neural stem cells were cultured as described in Example 1 in the presence or absence of GM-CSF or T3, and were fixed after 1, 3 or 5 days of culture in differentiation media. The fixed cells were immunostained for the maturing oligodendrocyte marker GalC and TUNEL, which is a marker of dying cells. The numbers of dicing, maturing oligodendrocytes (GalC+, TUNEL+cells) were then counted and their percentage in total GalC+cells are shown in FIG. 2.

GM-CSF = biological target: T1, GM-CSF; test: rapid differentiation protocol with GM-CSF with or without soluble GM-CSF receptor alpha; type: cell-based; conditions: 100-fold excess of sGMRa, 5 days in vitro, FIG. 1
Experimental: A rapid differentiation protocol was performed, as described above, in the absence or presence of GM-CSF, with or without a 100-fold excess of sGMRa. After 5 days in vitro, the cells were fixed, immunostained with the mature oligodendrocyte marker MBP and counted as previously described.

[8] = McLay et al., 1997; cited from earlier work
[9] = immature oligodendrocyte marker O4, 1 DIV
[10] = mature oligodendrocyte marker MBP, 1 DIV
[11] = maturing oligodendrocyte marker GalC, 1 DIV

Row | Molecule | % positive cells, GalC (neural stem cells [1]; GalC, 3 DIV) [%] | % positive cells, GalC (neural stem cells [1]; GalC, 5 DIV) [%] | % positive cells, MBP (neural stem cells [1]; MBP, 3 DIV) [%] | % positive cells, MBP (neural stem cells [1]; MBP, 5 DIV) [%] | % positive cells, O4 (neural stem cells [1]; O4, 3 DIV) [%] | % positive cells, O4 (neural stem cells [1]; O4, 5 DIV) [%] | % positive cells, O4 (neural stem cells [1]; [9]) [%] | % positive cells, MBP (neural stem cells [1]; [10]) [%] | % positive cells, GalC (neural stem cells [1]; [11]) [%] | ability of neural stem cells to form primary neurospheres [2] | number of secondary neurospheres [3] | formation of secondary spheres [3] | number of mature oligodendrocytes (MBP+ cells) (neural stem cells [4]) | number of neurons (β-tubulin+ cells) (neural stem cells [4]) | total cell number in the neural stem cell culture [5] | MBP + cells after 5DIV ([6]; factor added after 24 hours) | MBP + cells after 5DIV ([6]; factor added after 48 hours) | MBP + cells after 5DIV ([6]; factor present for 5 DIV) | MBP + cells after 5DIV ([6]; factor removed after 24 hours) | MBP + cells after 5DIV ([6]; factor removed after 48 hours) | also measured
1 | N[C@@H](Cc1cc(I)c(Oc2ccc(O)c(I)c2)c(I)c1)C(=O)O [T3, triiodothyronine, reference compound] | 15.3 ± 1.5 | 11.1 ± 0.9 | 13.9 ± 1.1 | 17.2 ± 1.6 | 35.9 ± 1.7 | 19.9 ± 1.5 | 18.2 ± 1.2 | 1.6 ± 0.4 | 8.0 ± 0.8 | neither GM-CSF nor T3 have significant effects | decreased | detrimental | increased | decreased | reduces | 14.8 ± 1.5 | 12.0 ± 1.1 | 13.9 ± 1.1 | 15.5 ± 1.1 | 13.8 ± 1.1 | dependence of oligodendrocyte numbers on length of time the factor is present [6]: did not chance regardless of the length of time; number of dying GalC+ cells (GalC+, TUNEL+ in total GalC+ cells) [7]: only minor survival effects, if any
2 | sGMRa: GM-CSF receptor alpha (sGMRa), a soluble factor that binds GM-CSF (protein, UniProt P15509 23-320, looked up, extracellular domain) extracellular domain: EKSDLRTVAPASSLNVRFDSRTMNLSWDCQENTTFSKCFLTDKKNRVVEPRLSNNECSCTFREICLHEGVTFEVHVNTSQRGFQQKLLYPNSGREGTAAQNFSCFIYNADLMNCTWARGPTAPRDVQYFLYIRNSKRRREIRCPYYIQDSGTHVGCHLDNLSGLTSRNYFLVNGTSREIGIQFFDSLLDTKKIERFNPPSNVTVRCNTTHCLVRWKQPRTYQKLSYLDFQYQLDVHRKNTQPGTENLLINVSGDLENRYNFPSSEPRAKHSVKIRAADVRILNWSSWSEAIEFGSDDG | – | – | – | – | – | – | – | – | – | – | – | – | – | – | – | – | – | – | – | – | effect of GM-CSF on MBP+ cells (GM-CSF): specifically inhibited
3 | GM-CSF: murine recombinant GM-CSF, Peprotech (protein, UniProt P01587 18-141, looked up) Granulocyte-macrophage …: APTRSPITVTRPWKHVEAIKEALNLLDDMPVTLNEEVEVVSNEFSFKKLTCVQTRLKIFEQGLRGNFTKLKGALNMTASYYQTYCPPTPETDCETQVTTYADFIDSLKTFLTDIPFECKKPGQK | 7.4 ± 0.8 | 7.9 ± 1.0 | 8.1 ± 0.9 | 12.2 ± 1.3 | 25.7 ± 1.5 | 9.6 ± 1.0 | 16.6 ± 1.2 | 1.2 ± 0.3 | 4.1 ± 0.6 | neither GM-CSF nor T3 have significant effects | does not significantly affect | detrimental | increased | decreased | slightly increased | 8.1 ± 0.9 | 3.9 ± 0.6 | 8.0 ± 0.8 | 5.4 ± 1.0 | 9.7 ± 1.0 | percentage of oligodendrocytes produced from neural stem cells (neural stem cells [1]; every stage of oligodendrocyte development, versus control): significantly increased; also recorded: increased by several folds; crossing the blood-brain barrier [8]: capable of crossing the blood-brain barrier; dependence of oligodendrocyte numbers on length of time the factor is present [6]: required for an extended period of time; number of dying GalC+ cells (GalC+, TUNEL+ in total GalC+ cells) [7]: significantly reduced
